Data reported in PMC4364404.

Biological target: T1, NgTet1 (Naegleria gruberi, UniProt D2W6T1 1-321)
T1 sequence: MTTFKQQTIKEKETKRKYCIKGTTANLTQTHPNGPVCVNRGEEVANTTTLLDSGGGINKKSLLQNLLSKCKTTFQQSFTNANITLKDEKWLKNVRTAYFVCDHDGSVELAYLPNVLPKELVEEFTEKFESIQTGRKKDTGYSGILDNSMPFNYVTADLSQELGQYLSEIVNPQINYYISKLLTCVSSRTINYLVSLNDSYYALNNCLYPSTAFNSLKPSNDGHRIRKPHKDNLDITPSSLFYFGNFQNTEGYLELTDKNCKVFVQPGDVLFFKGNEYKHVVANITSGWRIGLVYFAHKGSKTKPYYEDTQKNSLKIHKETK
Assay: X-ray crystallography

B1: 14-bp fully methylated CpG DNA (dsDNA)
DNA 1: TGGAACGCAATTCT
DNA 2: AGAATTGCGTTCCA
modifications: 5mC at position 6 of strand 1 and position 8 of strand 2
B1: binds.
